Test system: serum uric acid (sUA)
Assay: Serum uric acid (sUA) levels and sUA responders, open-label study of pegloticase with MTX (NCT03635957)
Assay type: in vivo, human
Method: The primary objective is to estimate the response rate during Month 6 (Weeks 20, 22, and 24), as measured by the sustained normalization of serum uric acid (SUA) to <6 mg/dL for at least 80% of the time during Month 6 in subjects receiving KXX with MTX.
The primary efficacy outcome endpoint is the sustained normalization of SUA to <6 mg/dL for at least 80% of the time during month 6 (weeks 20, 22, and 24) in subjects receiving KXX with MTX. This is slightly below the urate solubility threshold and this threshold has been the accepted standard for nearly all modern gout trials. Participants who achieve this endpoint were classified as “responders.” Serum uric acid (SUA) responders may also be defined as participants achieving and maintaining SUA <6 mg/dL for at least 80% of the time during Month 6 (Weeks 20, 22, and 24).
Blood samples may be collected prior to each pegloticase infusion for measurement of SUA levels using the Beckman Coulter AU System Uric Acid procedure. Participants were declared “non-responders” if there were SUA measures >6 mg/dL at 2 consecutive study visits beginning with the week 2 visit. […] If the SUA goal is not maintained before or at the 12-week mark, it was assumed that the participant had developed clinically relevant anti-pegloticase antibody and they received no further infusions. This assumption and subsequent discontinuation of pegloticase was consistent with the protocol of large phase III randomized controlled trials and the product label. A formal stopping rule was 2 occasions of SUA levels of greater than 6 mg/dL.
Clinical Chemistry—Blood samples were collected prior to each pegloticase infusion for measurement of SUA levels (primary efficacy parameter) using the Beckman Coulter AU System Uric Acid procedure. In this procedure uric acid is converted to hydrogen peroxide. Hydrogen peroxide reacts with reagent to produce a chromophore which is read bichromatically at 660/800 nm. The amount of dye formed is proportional to the uric acid concentration in the sample.
Serum samples for measurement of SUA levels were collected at the Screening Visit, the Week −4 Visit (prior to the first dose of MTX), and the Week −2 Visit during the MTX Run-in Period; within 48 hours prior to each pegloticase infusion and after the end of each pegloticase infusion prior to discharge from the site during the Pegloticase+IMM Period; at the non-infusion Week 52/End of Study/Early Termination Visits and at the Post Treatment 3 and 6 Month Follow-up Visits. Additional serum samples for SUA levels were collected at optional non-infusion (Frequent Sampling) Visits at Weeks 1 and 7. […] Subjects with SUA level >6 mg/dL at 2 consecutive visits beginning at Week 2 visit discontinued treatment, completed the End of Pegloticase Infusion Visit procedures within 2 weeks and continued the subject visits according to the protocol (without treatment).
Efficacy analyses were performed using the modified intention-to-treat (mITT) population, defined as all enrolled subjects who received ≥1 dose of pegloticase. The proportion of Month 6 responders was summarized, along with a 95% confidence interval for the proportion. The proportion of Month 3 and overall (Months 3 and 6 combined) responders was analyzed similarly.
A subject was declared a non-responder if the subject had SUA level >6 mg/dL at 2 consecutive study visits beginning with the Week 2 Visit. In addition, a subject who withdraws from study treatment for any reason after the first dose of pegloticase in the KXX+MTX Period and prior to Month 6 (for the primary endpoint) or Month 3 (for the secondary endpoint) was considered a non-responder if SUA values were not collected at the planned time points.
Patients were administered oral MTX (15 mg/week) and folate (1 mg/day) 4 weeks prior to the first pegloticase infusion (Day 1) and throughout the pegloticase treatment period. […]

[1] = Week 34 - Pre-Infusion, Month 6 sUA Responders
[2] = Week 34 - Pre-Infusion, mITT, n=10
[3] = Week 36 - Post-Infusion, Month 6 sUA Responders
[4] = Week 36 - Post-Infusion, mITT, n=6
[5] = Week 36 - Pre-Infusion, Month 6 sUA Responders
[6] = Week 36 - Pre-Infusion, mITT, n=9
[7] = Week 38 - Pre-Infusion, Month 6 sUA Responders
[8] = Week 38 - Pre-Infusion, mITT, n=5
[9] = Week 40 - Pre-Infusion, Month 6 sUA Responders
[10] = Week 40 - Pre-Infusion, mITT, n=3
[11] = Week 42 - Pre-Infusion, Month 6 sUA Responders
[12] = Week 42 - Pre-Infusion, mITT, n=3
[13] = Week 44 - Pre-Infusion, Month 6 sUA Responders
[14] = Week 44 - Pre-Infusion, mITT, n=3
[15] = Week 46 - Pre-Infusion, Month 6 sUA Responders
[16] = Week 46 - Pre-Infusion, mITT, n=2
[17] = Week 48 - Post-Infusion, Month 6 sUA Responders
[18] = Week 48 - Post-Infusion, mITT, n=3
[19] = Week 48 - Pre-Infusion, Month 6 sUA Responders
[20] = Week 48 - Pre-Infusion, mITT, n=2
[21] = Week 50 - Post-Infusion, Month 6 sUA Responders
[22] = Week 50 - Post-Infusion, mITT, n=3
[23] = Week 50 - Pre-Infusion, Month 6 sUA Responders
[24] = Week 50 - Pre-Infusion, mITT, n=2
[25] = Week 52/ET, Month 6 sUA Responders

B1: pegloticase (protein)
chain: TYKKNDEVEFVRTGYGKDMIKVLHIQRDGKYHSIKEVATTVQLTLSSKKDYLHGDNSDVIPTDTIKNTVNVLAKFKGIKSIETFAVTICEHFLSSFKHVIRAQVYVEEVPWKRFEKNGVKHVHAFIYTPTGTHFCEVEQIRNGPPVIHSGIKDLKVLKTTQSGFEGFIKDQFTTLPEVKDRCFATQVYCKWRYHQGRDVDFEATWDTVRSIVLQKFAGPYDKGEYSPSVQKTLYDIQVLTLGQVPEIEDMEISLPNIHYLNIDMSKMGLINKEEVLLPLDNPYGKITGTVKRKLSSRL
modifications: monomethoxy PEG conjugated; Krystexxa Sequence
notes: covalent conjugate of uricase produced by a genetically modified strain of Escherichia coli and monomethoxypoly (ethylene glycol)
[1]
  sUA < 6 mg/dL, %: (100%)
  sUA Change from Baseline, Mean: -8.47 mg/dL
  sUA Change from Baseline, Median: -7.95 mg/dL
  sUA Observed, Mean: 0.82 mg/dL
  sUA Observed, Median: 0.30 mg/dL
[2]
  sUA < 6 mg/dL, n (%): 10 (100%)
  sUA Change from Baseline, Mean (SD): −8.47 (3.248) mg/dL
  sUA Change from Baseline, Median: -7.95 mg/dL
  sUA Observed, Mean (SD): 0.82 (1.046) mg/dL
  sUA Observed, Median: 0.30 mg/dL
[3]
  sUA < 6 mg/dL, %: (100%)
  sUA Change from Baseline, Mean: -9.38 mg/dL
  sUA Change from Baseline, Median: -9.20 mg/dL
  sUA Observed, Mean: 0.30 mg/dL
  sUA Observed, Median: 0.30 mg/dL
[4]
  sUA < 6 mg/dL, n (%): 6 (100%)
  sUA Change from Baseline, Mean (SD): −9.38 (3.799) mg/dL
  sUA Change from Baseline, Median: -9.20 mg/dL
  sUA Observed, Mean (SD): 0.30 (0.000) mg/dL
  sUA Observed, Median: 0.30 mg/dL
[5]
  sUA < 6 mg/dL, %: ( 88.9%)
  sUA Change from Baseline, Mean: -7.90 mg/dL
  sUA Change from Baseline, Median: -8.60 mg/dL
  sUA Observed, Mean: 1.58 mg/dL
  sUA Observed, Median: 0.30 mg/dL
[6]
  sUA < 6 mg/dL, n (%): 8 (88.9%)
  sUA Change from Baseline, Mean (SD): −7.90 (4.094) mg/dL
  sUA Change from Baseline, Median: -8.60 mg/dL
  sUA Observed, Mean (SD): 1.58 (2.425) mg/dL
  sUA Observed, Median: 0.30 mg/dL
[7]
  sUA < 6 mg/dL, %: (100%)
  sUA Change from Baseline, Mean: -8.41 mg/dL
  sUA Change from Baseline, Median: -8.60 mg/dL
  sUA Observed, Mean: 0.93 mg/dL
  sUA Observed, Median: 0.30 mg/dL
[8]
  sUA < 6 mg/dL, n (%): 5 (100%)
  sUA Change from Baseline, Mean (SD): −8.41 (5.229) mg/dL
  sUA Change from Baseline, Median: -8.60 mg/dL
  sUA Observed, Mean (SD): 0.93 (1.583) mg/dL
  sUA Observed, Median: 0.30 mg/dL
[9]
  sUA < 6 mg/dL, %: (100%)
  sUA Change from Baseline, Mean: -11.30 mg/dL
  sUA Change from Baseline, Median: -9.80 mg/dL
  sUA Observed, Mean: 0.30 mg/dL
  sUA Observed, Median: 0.30 mg/dL
[10]
  sUA < 6 mg/dL, n (%): 3 (100%)
  sUA Change from Baseline, Mean (SD): −11.30 (3.686) mg/dL
  sUA Change from Baseline, Median: -9.80 mg/dL
  sUA Observed, Mean (SD): 0.30 (0.000) mg/dL
  sUA Observed, Median: 0.30 mg/dL
[11]
  sUA < 6 mg/dL, %: (100%)
  sUA Change from Baseline, Mean: -11.30 mg/dL
  sUA Change from Baseline, Median: -9.80 mg/dL
  sUA Observed, Mean: 0.30 mg/dL
  sUA Observed, Median: 0.30 mg/dL
[12]
  sUA < 6 mg/dL, n (%): 3 (100%)
  sUA Change from Baseline, Mean (SD): −11.30 (3.686) mg/dL
  sUA Change from Baseline, Median: -9.80 mg/dL
  sUA Observed, Mean (SD): 0.30 (0.000) mg/dL
  sUA Observed, Median: 0.30 mg/dL
[13]
  sUA < 6 mg/dL, %: (100%)
  sUA Change from Baseline, Mean: -10.55 mg/dL
  sUA Change from Baseline, Median: -9.80 mg/dL
  sUA Observed, Mean: 1.05 mg/dL
  sUA Observed, Median: 0.30 mg/dL
[14]
  sUA < 6 mg/dL, n (%): 3 (100%)
  sUA Change from Baseline, Mean (SD): −10.55 (4.625) mg/dL
  sUA Change from Baseline, Median: -9.80 mg/dL
  sUA Observed, Mean (SD): 1.05 (1.305) mg/dL
  sUA Observed, Median: 0.30 mg/dL
[15]
  sUA < 6 mg/dL, %: (100%)
  sUA Change from Baseline, Mean: -12.65 mg/dL
  sUA Change from Baseline, Median: -12.65 mg/dL
  sUA Observed, Mean: 0.30 mg/dL
  sUA Observed, Median: 0.30 mg/dL
[16]
  sUA < 6 mg/dL, n (%): 2 (100%)
  sUA Change from Baseline, Mean (SD): −12.65 (4.031) mg/dL
  sUA Change from Baseline, Median: -12.65 mg/dL
  sUA Observed, Mean (SD): 0.30 (0.000) mg/dL
  sUA Observed, Median: 0.30 mg/dL
[17]
  sUA < 6 mg/dL, %: (100%)
  sUA Change from Baseline, Mean: -10.33 mg/dL
  sUA Change from Baseline, Median: -9.80 mg/dL
  sUA Observed, Mean: 1.60 mg/dL
  sUA Observed, Median: 0.30 mg/dL
[18]
  sUA < 6 mg/dL, n (%): 3 (100%)
  sUA Change from Baseline, Mean (SD): −10.33 (4.922) mg/dL
  sUA Change from Baseline, Median: -9.80 mg/dL
  sUA Observed, Mean (SD): 1.60 (2.252) mg/dL
  sUA Observed, Median: 0.30 mg/dL
[19]
  sUA < 6 mg/dL, %: (100%)
  sUA Change from Baseline, Mean: -12.65 mg/dL
  sUA Change from Baseline, Median: -12.65 mg/dL
  sUA Observed, Mean: 0.30 mg/dL
  sUA Observed, Median: 0.30 mg/dL
[20]
  sUA < 6 mg/dL, n (%): 2 (100%)
  sUA Change from Baseline, Mean (SD): −12.65 (4.031) mg/dL
  sUA Change from Baseline, Median: -12.65 mg/dL
  sUA Observed, Mean (SD): 0.30 (0.000) mg/dL
  sUA Observed, Median: 0.30 mg/dL
[21]
  sUA < 6 mg/dL, %: (100%)
  sUA Change from Baseline, Mean: -10.57 mg/dL
  sUA Change from Baseline, Median: -9.80 mg/dL
  sUA Observed, Mean: 1.37 mg/dL
  sUA Observed, Median: 0.30 mg/dL
[22]
  sUA < 6 mg/dL, n (%): 3 (100%)
  sUA Change from Baseline, Mean (SD): −10.57 (4.598) mg/dL
  sUA Change from Baseline, Median: -9.80 mg/dL
  sUA Observed, Mean (SD): 1.37 (1.848) mg/dL
  sUA Observed, Median: 0.30 mg/dL
[23]
  sUA < 6 mg/dL, %: (100%)
  sUA Change from Baseline, Mean: -12.65 mg/dL
  sUA Change from Baseline, Median: -12.65 mg/dL
  sUA Observed, Mean: 0.30 mg/dL
  sUA Observed, Median: 0.30 mg/dL
[24]
  sUA < 6 mg/dL, n (%): 2 (100%)
  sUA Change from Baseline, Mean (SD): −12.65 (4.031) mg/dL
  sUA Change from Baseline, Median: -12.65 mg/dL
  sUA Observed, Mean (SD): 0.30 (0.000) mg/dL
  sUA Observed, Median: 0.30 mg/dL
[25]
  sUA < 6 mg/dL, %: (100%)
  sUA Change from Baseline, Mean: -12.65 mg/dL
  sUA Change from Baseline, Median: -12.65 mg/dL
  sUA Observed, Mean: 0.30 mg/dL
  sUA Observed, Median: 0.30 mg/dL
Week 52/ET, mITT, n=2
  sUA < 6 mg/dL, n (%): 2 (100%)
  sUA Change from Baseline, Mean (SD): −12.65 (4.031) mg/dL
  sUA Change from Baseline, Median: -12.65 mg/dL
  sUA Observed, Mean (SD): 0.30 (0.000) mg/dL
  sUA Observed, Median: 0.30 mg/dL

Reference: US20220323445A1, “REDUCING IMMUNOGENICITY TO PEGLOTICASE” (Horizon Therapeutics Ireland DAC, priority 2020, published 2022)
